Measured values reported in patent US20220017630A1 (JIANGSU SIMCERE PHARMACEUTICAL, published 2022).
Residue numbers refer to the chain shown, from its start.

T1: mouse TNFR2 (mouse, UniProt P25119 23-258, limits assumed)
T1 sequence (looked up): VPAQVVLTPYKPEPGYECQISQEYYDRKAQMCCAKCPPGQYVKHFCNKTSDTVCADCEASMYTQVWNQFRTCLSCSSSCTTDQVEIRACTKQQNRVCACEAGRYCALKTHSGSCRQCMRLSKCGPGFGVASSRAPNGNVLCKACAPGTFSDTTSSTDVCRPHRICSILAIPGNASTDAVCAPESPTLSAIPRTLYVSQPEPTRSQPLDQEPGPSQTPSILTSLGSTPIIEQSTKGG

T2: human CREG-His protein (human, UniProt O75629 32-220, limits assumed)
T2 construct: Control antigen in ELISA; also called control human CREG-His
T2 sequence (looked up): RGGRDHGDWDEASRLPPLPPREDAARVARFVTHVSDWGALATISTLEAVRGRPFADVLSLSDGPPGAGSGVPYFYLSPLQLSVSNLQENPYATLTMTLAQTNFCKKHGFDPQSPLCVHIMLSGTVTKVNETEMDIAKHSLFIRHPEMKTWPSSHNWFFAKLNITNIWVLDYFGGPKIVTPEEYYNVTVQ

T3: human TNFR2 on the cell surface (CHO-TNFR2 cells; human Treg cells) (human, UniProt P20333 23-461)
T3 sequence (looked up): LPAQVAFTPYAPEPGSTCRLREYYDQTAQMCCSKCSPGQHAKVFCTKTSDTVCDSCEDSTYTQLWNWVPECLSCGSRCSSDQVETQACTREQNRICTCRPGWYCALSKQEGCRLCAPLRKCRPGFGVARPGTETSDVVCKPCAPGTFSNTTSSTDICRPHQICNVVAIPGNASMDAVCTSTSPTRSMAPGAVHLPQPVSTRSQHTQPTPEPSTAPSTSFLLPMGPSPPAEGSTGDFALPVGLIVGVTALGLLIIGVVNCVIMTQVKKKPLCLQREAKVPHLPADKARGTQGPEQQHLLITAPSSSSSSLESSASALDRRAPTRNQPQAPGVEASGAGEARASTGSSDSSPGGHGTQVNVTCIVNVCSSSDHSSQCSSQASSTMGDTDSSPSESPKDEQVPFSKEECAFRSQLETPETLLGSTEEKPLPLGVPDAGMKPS

T4: human TNFR2 (Novoprotein, Catalog No. C830) (human, UniProt P20333 23-257, limits assumed)
T4 construct: construct not described; also called TNFR2 protein
T4 sequence (looked up): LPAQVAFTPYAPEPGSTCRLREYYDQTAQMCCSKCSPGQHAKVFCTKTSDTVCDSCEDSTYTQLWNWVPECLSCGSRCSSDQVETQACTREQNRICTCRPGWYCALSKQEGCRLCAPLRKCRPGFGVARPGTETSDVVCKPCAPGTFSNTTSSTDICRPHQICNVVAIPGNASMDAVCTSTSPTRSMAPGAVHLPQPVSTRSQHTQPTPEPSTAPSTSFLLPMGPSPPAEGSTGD

B1: TNFR2 antibody #219 (antibody, V domains shown)
VH: EVQLQESGAELVRPGASVKLSCKASGYSFTNYWMNWVKQRPGQGLEWIGMIHPSDTETRLNQNFKDKATLTVDKSSSTSYMQLSSPTSEDSAVYYCARGEGLGAARSVSMDYWGQGTTVTVSS
VL: DILMTQSPSSLSASLGDRVTISCRASQDISNYLNWYQQKPDGTVKVLIYYTAILHSGVPSRFSGSGSGTDYSLTISNLEQEDIATYFCQQGNTLPWTFGGGTKLEIK
B2: TNFR2 antibody #224 (antibody, V domains shown)
VH: EVQLQESGPEIVKPGASVKLSCTASGFNNKDIYMHWVKQRPEQGLEWIGRIDPATGNTKHDPKFQDKATLSSDTSSNTAYLQFSSLTSEDTAVYYCAHSPYGDFGAMDYWGQGTTVTVSS
VL: DIQMTQSPAIMSASLGERVTMTCTASSSVSSNYLHWYQQKPGSSPKLWIYSTSNLPSGVPARFSGSGSGTSYSLTISSMEAEDAATYYCHQYHRSPWTFGGGTKLEIK
B3: TNFR2 antibody #133 (antibody, V domains shown)
VH: EVQLQESGAELVRSGASVKLSCTASGFNIKDYYIQWVKQRPEQGLEWIGWIDPESGNTKYAPKFQDKATMTADTSSNTAYLQLSGLTSEDSAVYYCNAYYDYDGSMDYWGQGTTVTVSS
VL: DIVMTQSPLSLPVSLGDQASISCRSSQSLVHSNGNTYLHWYLQKPGQSPKLLIYKVSNRFSGVPDRFSGSGSGTDFTLKISRVETDDLGVYFCSQSTHVPTWTFGGGTKLEIK
B4: TNFR2 antibody #125 (antibody, V domains shown)
VH: EVQLQESGGGLVQPGGSLNLSCAASGFAFSIYDLSWVRQTPEKRLEWVAYINNGGISTYYSDTVKGRFTISRDNAKNTLYLQMSSLKSEDTAMYYCVRGPFYGSANYFDYWGQGTTVTVSS
VL: DIQMTQSPASLSLSVGETVTITCRASENIYSNLAWYQQKQGKSPQLLVYDATKLAEGVPSRFSGSESGTQYSLKINSLQSEDFGTYYCQHFWVTPWTFGGGTKLEIK
B5: TNFR2 antibody #088 (antibody, V domains shown)
VH: B4 VH with I31T, E42G, S71T
VL: B4 VL with Q3L, S14F
B6: TNFR2 antibody #001 (antibody, V domains shown)
VH: B4 VH with I31T
VL: B4 VL with D1E, Q3V, A25T, N28S, A34P
notes: also called antibody #1
B7: TNFR2 antibody #309 (antibody, V domains shown)
VH: EVQLQESGAELVKPGASVKLSCKASGYTFTSYWIHWVKLRPGQGFEWIGEINPNNGGTDYNEKFKRKATLTVDKSSSTAYMELSSLTSEDSAIYYCTIDSMITTTWFAYWGQGTTVTVSS
VL: EIVMTQSQKLMSTVVGDRVSVTCKASQNVGTNVAWFQQKPGQSPKALINSASYRYSGVPDRFTGSGSGTDFTLTISSVQSEDLAEYFCQQYNSYPFTFGSGTKLEIK
B8: TNFR2 antibody #352 (antibody, V domains shown)
VH: EVQLQESGPGLVAPSQSLSITCTVSGFSLTSYGVHWVRQPPGKGLEWLVVIWSDGGTTYNSALKSRLSISKDNSKSQVFLKMNSLQTDDTAMYYCARHDDDGYYAMDYWGQGTTVTVSS
VL: DIVLTQSPSLMSASPGEKVTMTCSASSSVGYMYWYQQKPRSSPKPWIYLTSNLASGVPARFSGSGSGTSYSLTISSMEVEDAATYYCQQWSSDPFTFGSGTKLEIK
B9: TNFR2 antibody #395 (antibody, V domains shown)
VH: EVQLQESGPVLVQPSQSLSITCTVSGFSLTSYSVHWVRQSPGKGLEWLGVIWSDGGTDYSAAFISRLSISKDNSKSQVFFKMNSLQADDTAIYYCARNDDGGDYAMDYWGQGTTVTVSS
VL: B8 VL with D1E, S9A, G30S, V79A, D93N, F95L, S99A

Each binder was assayed against T1, mouse TNFR2 (assay: ELISA).

| binding result | Binder |
| --- | --- |
| no binding (tested: 28 ng/ml) | B1 |
| no binding (tested: 28 ng/ml) | B2 |
| no binding (tested: 28 ng/ml) | B3 |
| no binding (tested: 28 ng/ml) | B4 |
| no binding (tested: 12 ng/mL) | B5 |
| no binding (tested: 28 ng/ml) | B6 |
| no binding (tested: 12 ng/mL) | B7 |
| no binding (tested: 28 ng/ml) | B8 |
| no binding (tested: 28 ng/ml) | B9 |

These binders were tested against T2, human CREG-His protein (assay: ELISA).

| binding result | Binder |
| --- | --- |
| no binding (tested: 28 ng/ml) | B1 |
| no binding (tested: 28 ng/ml) | B2 |
| no binding (tested: 28 ng/ml) | B3 |
| no binding (tested: 28 ng/ml) | B4 |
| no binding (tested: 12 ng/mL) | B5 |
| no binding (tested: 28 ng/ml) | B6 |
| no binding (tested: 12 ng/mL) | B7 |
| no binding (tested: 28 ng/ml) | B8 |
| no binding (tested: 28 ng/ml) | B9 |

What follows are binders tested against T3, human TNFR2 on the cell surface … (assay: cell-based or functional assay).

| proliferation inhibition (TNFα-induced Treg cell proliferation, against anti-Hel) [%] | Binder |
| --- | --- |
| 13.6 | B1 |
| 9.7 | B3 |
| 5.2 | B4 |
| 6.9 | B5 |
| 17.1 | B6 |

The binders below were run against T3, human TNFR2 on the cell surface … (assay: flow cytometry, blocking of TNFα-biotin on CHO-TNFR2 cells).
Procedure: (§1) CHO cells that stably overexpressed human TNFR2 were used for experiments. The cells were resuscitated and passaged until in good state, and the expression level of human TNFR2 on the cells was assessed by FACS. Compared to the isotype control, the assay could be carried out when the fold change of mean fluorescence intensity (MFI) was more than 100 times.
(§2) CHO-TNFR2 cells were digested, washed twice with DPBS and stained with Live/Dead (L/D) at room temperature for 20 min, and then seeded at 1×10⁵ cells/50 μl/well. […] The diluted antibodies were added 50 μl/well into wells pre-seeded with cells, and gently blown and mixed to make the final concentrations of the antibodies to 20, 6.67, 2.22, 0.74, 0.247, 0.08, 0.027 and 0 nM, respectively followed by incubation at 4° C. for 30 min. […] After washing twice with the staining buffer, 100 μl/well of PE-streptavidin was added and incubated at 4° C. for 30 min. After additional washing with the staining buffer twice, 150 μl resuspended cells was analyzed using an flow cytometry. Taking the logarithmic value of the antibody concentrations as abscissa and the corresponding MFI value as ordinate, the inhibition curve of the antibody was drawn, and the IC50 value was calculated by four parameters fitting.

| IC50 [µg/mL] | Binder |
| --- | --- |
| 0.101 | B1 |
| 0.128 | B2 |
| 0.04 | B3 |
| 0.109 | B4 |
| 0.185 | B5 |
| 0.14 | B6 |
| 0.116 | B7 |
| 0.056 | B8 |
| 0.021 | B9 |

The binders below were run against T4, human TNFR2 (Novoprotein, Catalog No. …) (assay: blocking ELISA, TNFα-biotin on coated human TNFR2, antibody 2 nM).
Procedure: (§3) A microplate was pre-coated with 100 μl/well of 1 μg/ml human TNFR2 (Novoprotein, Catalog No. C830). […] After washing the plate, a Streptavidin-HRP working solution (1:10000 dilution) was added at 100 μl/well, and incubated with shaking at room temperature for 40 min. The plate was washed again, the HRP substrate TMB was added for color development, the termination solution was added to terminate the reaction, and the microplate reader was used to read the absorption value.

| ELISA OD of antibodies to be tested (2 nM) [OD] | Binder |
| --- | --- |
| 0.756 | B1 |
| 1.44 | B2 |
| 2.11 | B3 |
| 0.599 | B4 |
| 2.34 | B5 |
| 0.805 | B6 |
| 2.14 | B7 |
| 1.78 | B8 |
| 1.14 | B9 |

Target: T3, human TNFR2 on the cell surface …
Assay: flow cytometry, blocking of TNFα-biotin on CHO-TNFR2 cells
Remark: another data set of the same source

| Antibody AUC | Binder |
| --- | --- |
| 14900 | B1 |
| 40000 | B2 |
| 17300 | B3 |
| 37000 | B4 |
| 24300 | B5 |
| 34300 | B6 |
| 27800 | B7 |
| 10700 | B8 |
| 14900 | B9 |

These binders were tested against T3, human TNFR2 on the cell surface … (assay: flow cytometry, blocking of TNFα-biotin on CHO-TNFR2 cells; against 002#).
Procedure: as §1, §2

| IC50 Relative Value % [%] | Binder |
| --- | --- |
| 71.4 | B1 |
| 132 | B2 |
| 150 | B3 |
| 165 | B4 |
| 41.5 | B5 |
| 65.6 | B6 |
| 70.7 | B7 |
| 171 | B8 |
| 270 | B9 |

Each binder was assayed against T4, human TNFR2 (Novoprotein, Catalog No. …) (assay: blocking ELISA, TNFα-biotin on coated human TNFR2; 002# OD / antibody OD x 100).
Procedure: as §3

| % to 002# OD (2 nM) [%] | % to 002# OD (20 nM) [%] | Binder |
| --- | --- | --- |
| 89.7 | 89 | B1 |
| 101 | 277 | B2 |
| 74.6 | 110 | B3 |
| 113 | 154 | B4 |
| 69.3 | 94.1 | B5 |
| 84.2 | 126 | B6 |
| 75.9 | 96.6 | B7 |
| 88.2 | 106 | B8 |
| 138 | 178 | B9 |
